Laboratory results from US20170327556A1, “CARTILAGE-BINDING FUSION PROTEINS” (Merrimack Pharmaceuticals, Inc., priority 2013, published 2017).

Key:
[1] = ELISA binding of fusion proteins to heparan sulfate coated plates; details: 6x-Histidine-tagged proteins, FIG. 1A
Description: The specificity of binding of fusion proteins to the polysaccharides heparan sulfate and chondroitin sulfate may be determined by measuring the ability of the proteins to bind polysaccharides coated on an ELISA plate. Heparin Binding Plates (BD Biosciences) are coated with 50 μl of 2-10 μg/mL concentration of heparan sulfate or chondroitin sulfate (Sigma-Aldrich®) and incubated overnight at room temperature. Plates are washed with PBS and blocked with 250 μl of 0.2% gelatin in PBS for 1 hour at 37 C. Plates are then washed with PBS and tapped dry. 50 μl of protein in a dilution series is added to the wells and incubated for 2 hours at 37 C. The protein dilution series starts from 100 nM and includes ten additional three-fold dilutions in PBS, 0.2% gelatin and one blank (PBS, 0.2% gelatin only). After the plates are washed in PBS, 50 μl of anti-human IGF-1 (Abcam) at 1:250 in PBST is added and the plates are incubated for 1 hour rotating at room temperature. Plates are washed with PBST and 100 μl of 1:1000 anti-Rabbit-HRP (Cell Signaling Technology®) in PBST is added to each well and the plate is incubated for 1 hour at room temperature. […] The absorbance is measured at 450 nm and the resulting data is analyzed using GraphPad Prism® (GraphPad Software, San Diego, Calif.). […]

[2] = Stability of GF-Fus3 in human synovial fluid (western blot); format: in vitro ADME
Description: Synovial fluid was harvested from two human donors (see Table 14) within 24 hours of death, flash frozen and stored at −80° C. 2 μL of GF-Fus3 (0.45 mg/mL in PBS, Life Technologies Cat#10010-031) was added to 18 pt of synovial fluid (final GF-Fus3 concentration is 45 μg/mL) in a sealed 200 μL PCR tube and incubated at 37° C. for 0, 24, 48, 72, or 96 hours. Samples were diluted 1:10 in PBS and 10 μL (45 ng of GF-Fus3) was mixed with 3.3 μL of NuPAGE LDS Sample Buffer (Life Technologies, Cat# NP0007). GF-Fus3 standards were prepared at 100, 200, 400, 800, and 1600 ng/mL and 10 μL of each solution was mixed with 3.3 uL of NuPAGE LDS Sample Buffer. All samples and standards were loaded onto a 4-12% NuPAGE Bis-Tris Gel (Life Technologies, Cat# NP0321BOX), and run in NuPAGE MES SDS Running Buffer (Life Technologies, Cat# NP0002). Protein was transferred to a nitrocellulose membrane using an iBlot kit (Life Technologies, Cat# IB301001). Membrane was blocked in Odyssey Blocking Buffer (LI-COR, Cat#927-40000) for 1 hour at room temperature with agitation. Membrane was washed twice in PBS with 0.05% Tween20 (PBS-T) and incubated in 2 μg/mL anti-IGF-1 antibody (Millipore, Cat#05-172) overnight at 4° C. Membrane was washed three times in PBS-T and incubated with IRDye 800CW goat anti-mouse antibody (LI-COR, Cat#827-08364) diluted 1:2000 for 1 hour at room temperature. […]

For “GF-Fus3: C-terminal fusion IGF-1(LR3)-PRELP heparin binding domain”, the “binding to heparan sulfate” value [1] was “bound”, the “protein degradation band at less than 7.5 kDa” value ([2]; 45 ng loaded, after incubation in synovial fluid at 37° C.) was ≤ 1 ng and the “protein degradation in synovial fluid” value ([2]; 96 hours of 37° C. incubation, donors with grade 1 and grade 3 cartilage degeneration) was “minimal protein degradation”.
